Assay results: the domain aggregation screens of Martell et al. (2025)

Test: soluble fraction after stress (log2 fold change); higher = more stays soluble; pooled small domains, quantitative proteomics
Details: stress: 75 degC
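Further: 20 min heating vs room temperature control held 20 min.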

Sequence | soluble fraction (log2)
HMDMAYEVVKAFHDLQDYKDVKGGKVYHHYDVGDTYPRQGLDPAPDETRIEELLSSGNAQGVPLIAEV | 0.112
HMDMNVQNYRGLSLDRAKKLISDLGLKYEVVGTGDSVVKQVPSSGSRMSKENGRIILYTENVEDA | -0.0826
HMDMPLIGTAIRGWGIISPAQQETLIKMSILTVEDLAAINDEGIKRIGMGGLDLKNKAKAWLLQLK | -2.2
HMDMRLADLIGRDGITITFMRPSGKVEIDGEIYDAVSDVGLIDKNEEVEVIKFENAQLVVTKKNKN | 0.102
HMDMSVDQFNQGIRGSELYQQFIHGRGLQQPDGKTREWTDADRNAWRRTLEASGVRIPDGMKIDNAGNLNE | 0.375
HMDNEIIEEEKITTLMITHNMRDAIKYGNRLIMLNEGRVIFDISGEEKKNLTVQELLEKFEK | 0.242
HMDNEIMYPIQINGKVRAELFVSTERAMDKQYVLEQAKANEKIQGYLEGNRLVKEIFVPKRIVNLVIAP | -0.576
HMDNIEIGNRIREIRIKKNISVFELAYRTKTSQSHIYQIEGGSQNMSIELLFKIADTLETDPNTILGV | -3.97
HMDNIPAHIKAKIINYVNRNYPGAIIKDIERKSNGRYEAEIVYNNREYDLLFDAQGNFISASLDDK | -0.0583
HMDNNFIQSLYPIAIGISKNQLDPWDLINGWVEYYLKNKEKYINHPNLKAVAVLKMKGLLIDHFRKS | -3.55
HMDNPKGNLQEAVQAKGNEPIEYRVLNVDGPDHAREFKIAVFIGGKRKGTGVGNSKKKAEEIAAEKAFKRM | 0.109
HMDNPVPVIITDQNFQPQLWKNVGVPTDTLFHELSAANQRKLENLMKTMIQTPLTDNGKISGYAFYSK | -0.00686
HMDNREKLRQEFLENLKELQEQNDIPQQEIDRVILDYDGVAEFLEDEGALKRYGGQLVDMTAYRAGAIPS | 0.0771
HMDNRLFKMLYYLLDKERATAPELAAEFEVSTRTIYRDVEALSSAGIPIYAEPGRNGGIYLLQD | -2.3
HMDNTSNVEKTLRFIRQRGKVSRKEVETLLGSSKFPAISALNELLAENKIVKTGSGPAVRYSVS | -0.353
HMDNVINDGMQVRFTGNVDINGTPLKIYDRIYTAEGISDDTVVLMLGNDVYARVYLSDVVPAD | -0.975
HMDNWLSGLAVEADRMILTQPGEVFDRLSRAFEATLIRRALASTGGRRIEAAHLLGIGRNTITRKIQDLGL | -2.62
HMDPDARQDAEVWLLDFLSAGPRTAQEIFTAARVEGHTRVTVKRAKATAGIQSVKQDFDGPWVWVLPGSG | -0.455
HMDPFAYEVKVTDLAAGSSEIRTVYTEQGSFNIPSGMSGNLKIQVRSASMYDEVEPSDWYTIGEEDIN | 0.0347
HMDPLASLTPREREVLSLMAQGLSNLAVAERLVVSAGAVEKHISSIFTKLDLAPSEHEHRRVLAVLRYVAG | -2.86
HMDPPISNDARNAINAKLMKFSELHPNEMKKLVEAYKKEFKVSKISPITLARQGEFLSHAISKIDDT | -0.0671
HMDPQDGTVKFFNGARGFGFITPDGGGADVFVHVSAVERAGLTQLVEGQRVNFQTLPDTKGKGPKAVNLKV | 0.106
HMDPSDQLYTVPPSAEGLRLDLFLVQHVPHMTRALATQLTGAGQVRVNGRRAKKGDRLPSGAQVRLEQAP | -0.85
HMDPSHGESRENLDIMRIIDETHLEYPSWGYRKMTDHLRANHGYTINRKRVRRLMRLMDIIALFPG | -1.33

Sequence | soluble fraction (log2)
HMDPSVTGLLTRLGISPQTAQELAGQYEEPYILEKIAIVEAHPEYVKNAAGFVITALQEDWKD | -0.591
HMDPTHDMHFLVKDQVTGQPLPNMPYRLQLDNGQTLTGRTDALGMTEKISGHSPHIASIEVPY | 0.117
HMDPVILDINSVKALLGISNKADFMAELSRLVVTEGDKKMIIPLAKEVGIDNVAVYKRNEIENISNYK | -0.129
HMDQAEDVLSIPVDALMRGNQVYIKDDTVTEQQGPIPAGFKAVEVETGLISDSYVEIKSGLSEGDTVYVAE | 0.129
HMDQESFGYFHVKYADVKQVADLVQKLNIPAVTWADERTRRLVALGSPATLQRISQVLNMVDL | -0.781
HMDQHPYGEDSFRGDNPPAGFDIKGNEDSMKFHEPSSPWYGRTIAEVWFRSAAAAEAAGFVNAV | -0.0403
HMDQINNDLRKLIEFLPEDQKTVLKMRHFQEMSFKEIAKATGVSINTALGRMRYALINLRKLIEENEI | -2.06
HMDQPLIEPLSERELEVLSLIAAGYSNAEIAERLVIAVGTVKRHINNLYGKLGAGSRTQALAIAREIGLM | -0.107
HMDQTKYDAIITEAKKLTAEGQYKESEEKLATIPVSDLGKPHYSIVKETVEKLNNQNNEGLKRQEEVAVE | -0.0329
HMDQVLHQLVEVLRRSEIRISPAETLDAFKVLRNVGIDNKSLLREALALTLAKSIHEKIIFYETFDEFFT | -1.46
HMDRADIDAVDAEWVRATMERLGLRAKHIESHTGISKSTLSILLNGHRPLTRWHKIAFYYLFKHIEF | -2.76
HMDRDQNVEEGQRSLKSEMGRFGLLIANMDDLAERVNYGNAEDMYAAIGAGDLRLMQVVHAAEEMLG | 0.097
HMDRENNITAGREILEKELSRLALNMKMVNLQDYAARFNVKHSDDILAGIGAGDIRPAHIVNAIAEKLT | -0.0151
HMDREQLELYVGEVRVLQVGELRRIAIGNGKVLQASALDRGQLLLIPEAPGQSVLYLWTRDGTERHLSISV | 0.0104
HMDRESFIKLGRELARSAFAHVGQKSTEKALETAADVLRLKDPNEVLARLGSAELTGRQVVQAIYPELI | -0.277
HMDRFRYYITEDSVQRGTYPYVDETTLKRFTSQLHKYEQGMISAYGYLEYSKPLTAEQIKDYTLMPSP | -0.0579
HMDRFVLQLSKRYYDSSIEGVRKALAAFPVKTELLDQDRGGRPFYHENGKENEPVFRIMFHPEEGM | -0.421
HMDRIISTPMPGRVVKIPVTEGEPVAKGATVITISAMKMESEYKSPIDGIVKKIHVSEGDNINANQPLIEI | -0.51
HMDRKFFYEDQYQDYLGEELKVSFFDTDNKKTVRGTLSEVTPHGIKINLEQETQEIPFSSIIQANLI | 0.224
HMDRPARDEAQSWLADVLADGPVPTAEIREEAEAAGLAWRTIQRARIALSVEPIRGDGRNAWLWQLPG | -1.49
HMDRQIQITVAENEAGQRLDAFLAAKIPDMSRSYIQKLIEDGLILVNGQSTKGKVKTYSGMNIEVYMPE | -0.0484
HMDRRDEYHQHLLRLLLSGEIRDKDELQRRKVKLSGEYGLAGVPKNSETLALVPPDRLPEVLDILR | -0.214
HMDRSIGDIIAELRDLSAEQVERVLAHQRETGVRFGEAAVALGYASKEDVLFALSQQFHYPYAPEE | 0.0114
HMDRSVTAAELRLAAMDLLARREHGSQELEAKLSRRFHKRHYDVELLRSVIEQLTVEGLLSDERFAVS | -0.951

Sequence | soluble fraction (log2)
HMDRVTYPVSFNGKVRFQLELDAGMNAKEVETAALGHEKTAAQIEGKTIRKVIVVPGRIINIVV | -1.22
HMDRWTPLVVAVLSRGSHRFGELRAAIGGITPKVLTDTLRSMERDGLITRDQAPGVPPRVDYALTPLGS | -1.43
HMDSALKDDLNAFVKKLDVESQTLFMRRYFLGESVSSLASRFEMSEDNVGVKLFRIRAKLKKYLTGKGYD | -3.1
HMDSAMMDLVMRVQLALFTKGYDVGIIDGKIGPKTRAQIKRYQSDNRLSSTGTLTTSLLTSLGIQ | -3.16
HMDSATDRVALKELLNTLSARERTIITLRYFSDQTQTQVAKSLGISQVQVSRLENAILQRLRKL | -2.08
HMDSDELEAFRLITSVNGVGPKLGIAILSEFTAEKLTVFIASGDAKALTAASGVGIKLAQRIVLELKDKVG | -0.351
HMDSDFIKIEVLFNERNRLDLKAMMEASGFTDRGQFLSIMADLTGDENWDRNLDRGDIFYLPRSFTI | -1.28
HMDSDIGQQLKILLTVGTFMPSTELKAIAQQFGMKKPTDLKEWVELESDTQRIKGNPTKGYWINEINDL | -0.682
HMDSEEVYQMTKHKMDAAQISVAKRIHINLVLVKLLELHHLGYDLRHYHAQHHAFIKRLNLPEYFRFD | -1.67
HMDSEKVLTNLKEELVLQLSNIEPYGYVPSQYWYSKVQRVQSVQELGKYVDGDLEAFVMKYAEDWESQK | -0.115
HMDSGFMRTTQSYTVARLAEIFRLSGEDYLAVLREYDGWYQDLTSTKDLIRKGSDVPVPEGV | -1.67
HMDSGLEQAKTAALENAELETSQVTFIKAELDYDDGKKVYEIEFVTSAMKYEYQVKADDFSILEMSKETIE | -0.755
HMDSHSAESVRQRIKDMIAAEASKSILSDDTIVENLKSEGIEIARRTVAKYRESLNIPSSIQRRRIARSEA | -0.19
HMDSILMPGVVNKELREALAILKNEGIGWADPEYASSTVTRNYVISTDPVEGIELAPGQKVRLVVSLGPKP | -0.326
HMDSIQMKNNSILYYGNTAGYLDAKRNTAVVDPMFRTDEMESYLSEQKGLSVEWASGTYDRLT | 0.0501
HMDSLEIEEPITVKSLSAASGLKISDIIRKLMQEGIMATANQVIDREQAEAVLIDYNVDLVVKR | -0.281
HMDSLNWVEKIINTLPEQQRLIIQMRDIEQYEFAEIAKILEMNETAIRVALSRARKTIREFMIKTH | -2.07
HMDSLSLTELRIDSASPWIGNRISDFSPYAGELVIMIIRGEETIVPNGDTIILDKDLLVIYSS | -2.11
HMDSNFNYELVGFRLDDMGLNSSVIVKRNNQEFVIQKGDLLENKYLLNSVTKKNINFSYLGKNYQI | -1.07
HMDSNPLSEREQEVLQLVAKGASNQTIAEQLFLSNGTIRNYMTAIFNKLNANNRTDAVRIARENGW | -0.207
HMDSPVEEWANRGLAYDPSLVTETMAKLYAKQGQIGLARKAFKRLALIYPEKSVYFAFQLKKLSNN | -2.01
HMDSPVLTAEIKALIDKELEQNAVKLATGLKKQRKRATDIHDALIRQGHEVSYRTVVRYIRNKTAQTS | -0.751
